# Source: article PMC3177862, “Characterization of the Biosynthesis, Processing and Kinetic Mechanism of Action of the Enzyme Deficient in Mucopolysaccharidosis IIIC” (PLoS ONE, 2011)
# Assays:
# [1] = substrate: Cc1cc(=O)oc2cc(O[C@@H]3O[C@H](CO)[C@@H](O)[C@H](O)[C@H]3N)ccc12; test: coupled fluorescence assay with beta-hexosaminidase (4-methylumbelliferone release), Michaelis-Menten fit; type: biochemical, Homo sapiens; settings: acetyl-CoA fixed at 2 mM, CP buffer pH 5.5, 37 °C, liposomes with 20% PI, random sequential ternary-complex mechanism
# Description: (§1) coupled fluorescence assay with beta-hexosaminidase (4-methylumbelliferone release), Michaelis-Menten fit on N-acetyltransferase-His8Flag (heparin acetyl-CoA:alpha-glucosaminide N-acetyltransferase)
# [2] = substrate: CC(=O)SCCNC(=O)CCNC(=O)[C@H](O)C(C)(C)COP(=O)(O)OP(=O)(O)OC[C@H]1O[C@@H](n2cnc3c(N)ncnc32)[C@H](O)[C@@H]1OP(=O)(O)O; test: as above; type: biochemical, Homo sapiens; settings: MU-GlcNH2 fixed at 1 mM, CP buffer pH 5.5, 37 °C, liposomes with 20% PI, random sequential ternary-complex mechanism
# Description: as §1
protein,measurement,setting,value
"N-acetyltransferase-His8Flag (heparin acetyl-CoA:alpha-glucosaminide N-acetyltransferase) (Homo sapiens) (protein, full length 635 aa with C-terminal His8-Flag tag kept; stably expressed in HeLa cells, DDM extract, anti-Flag purified; signal peptide cleaved; mix of 62 kDa precursor and processed alpha (Lys43-Asn144, N-terminus KKRHAE) and beta (Gly145-Ile635, N-terminus GVSEIA) chains; native about 80 kDa, monomer) RDAQAAPPRDLDKKRHAELKMDQALLLIHNELLWTNLTVYWKSECCYHCLFQVLVNVPQSPKAGKPSAAAASVSTQHGSILQLNDTLEEKEVCRLEYRFGEFGNYSLLVKNIHNGVSEIACDLAVNEDPVDSNLPVSIAFLIGLAVIIVISFLRLLLSLDDFNNWISKAISSRETDRLINSELGSPSRTDPLDGDVQPATWRLSALPPRLRSVDTFRGIALILMVFVNYGGGKYWYFKHASWNGLTVADLVFPWFVFIMGSSIFLSMTSILQRGCSKFRLLGKIAWRSFLLICIGIIIVNPNYCLGPLSWDKVRIPGVLQRLGVTYFVVAVLELLFAKPVPEHCASERSCLSLRDITSSWPQWLLILVLEGLWLGLTFLLPVPGCPTGYLGPGGIGDFGKYPNCTGGAAGYIDRLLLGDDHLYQHPSSAVLYHTEVAYDPEGILGTINSIVMAFLGVQAGKILLYYKARTKDILIRFTAWCCILGLISVALTKVSENEGFIPVNKNLWSLSYVTTLSSFAFFILLVLYPVVDVKGLWTGTPFFYPGMNSILVYVGHEVFENYFPFQWKLKDNQSHKEHLTQNIVATALWVLIAYILYRKKIFWKI",Km,[1],450 ± 90 µM
same,Vmax,[1],9 µmol/min/mg
same,kcat,[1],10.4 ± 1.14 s⁻¹
same,Km,[2],500 ± 20 µM
same,Vmax,[2],6.33 µmol/min/mg
same,kcat,[2],7.33 ± 0.1 s⁻¹
